Legend:
[1] = biological target: Pierce recombinant protein A/G; test: plasmonic light-scattering biosensor array (localised gold nanoparticle plasmon); Fc assay: protein A/G immobilised on array spots by EDC/NHS coupling, BSA reference spots and BSA blocking; antibody in PBS; NISTmAb kinetics from a global Langmuir fit to low concentrations with ϑm floating; all antibody samples at 100 nM for 300 s, 500 s wash
[2] = biological target: respiratory syncytial virus protein F (respiratory syncytial virus) (UniProt P03420); test: plasmonic light-scattering biosensor array (localised gold nanoparticle plasmon); Fab assay: RSVF immobilised on array spots by EDC/NHS coupling, BSA reference spots and BSA blocking; NISTmAb injected at 1.56, 3.23 and 6.25 nM in PBS; global fit to the Langmuir 1:1 model
[3] = biological target: NISTmAb (NIST RM 8671), recombinant humanized IgG1κ specific to respiratory syncytial virus protein F (human (humanized IgG1κ)); test: plasmonic light-scattering biosensor array (localised gold nanoparticle plasmon); antigen assay: antibody (100 nM) first captured by its Fc on the protein A/G surface, then antigen at 100 nM in PBS injected for 300 s; stoichiometry from ϑm antigen/ϑm Fc normalised for the masses of antigen and intact IgG
NISTmAb (NIST RM 8671), recombinant humanized IgG1κ specific to respiratory syncytial virus protein F (human (humanized IgG1κ)), sequence (heavy, as listed by the source, chain 1 of 2): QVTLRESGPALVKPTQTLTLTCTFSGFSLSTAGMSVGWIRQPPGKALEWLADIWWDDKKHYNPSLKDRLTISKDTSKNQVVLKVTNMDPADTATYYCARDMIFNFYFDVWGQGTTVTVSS
NISTmAb (NIST RM 8671), recombinant humanized IgG1κ specific to respiratory syncytial virus protein F (human (humanized IgG1κ)), sequence (light, as listed by the source, chain 2 of 2): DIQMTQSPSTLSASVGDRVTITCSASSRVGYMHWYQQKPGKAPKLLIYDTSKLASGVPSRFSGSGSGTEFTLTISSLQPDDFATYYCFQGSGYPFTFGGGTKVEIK

Substance | koff [1] [s⁻¹] | kon [1] [M⁻¹ s⁻¹] | Kd [2] [nM] | koff [2] [s⁻¹] | kon [2] [M⁻¹ s⁻¹] | stoichiometry N (antigens per antibody) [3]
NISTmAb (NIST RM 8671), recombinant humanized IgG1κ specific to respiratory syncytial virus protein F (antibody) | 2e-05 | 59000 | 2.7 | 0.00024 | 89000 | –
respiratory syncytial virus protein F (from UniProt P03420 26-574) (natural protein) | – | – | – | – | – | 1.31

From PMC6718376
